System: peptide library, one residue held at a place counted from the Y acceptor
Assay: relative phosphorylation of the sub-library (ratio to the mean residue at this position); higher = residue favoured
Procedure, shortened: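 Biotinylated Tyr-centred peptide library mixtures, each fixing one residue at one position from −5 to +5, were incubated with purified recombinant kinases in 384-well plates for 90 min with 50 μM ATP plus γ-32P-ATP. Streptavidin membranes captured the peptides, which were rinsed and quantified by phosphorimaging and ImageQuant. At each position, intensities were divided by the sum of the 18 randomized residues (16 for the Ser/Thr-free library) and multiplied by that number. Each value is phosphorylation relative to the mean randomized residue.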

Sequence of IGF1R, construct: aa960-end, human (P08069 960-1367, looked up): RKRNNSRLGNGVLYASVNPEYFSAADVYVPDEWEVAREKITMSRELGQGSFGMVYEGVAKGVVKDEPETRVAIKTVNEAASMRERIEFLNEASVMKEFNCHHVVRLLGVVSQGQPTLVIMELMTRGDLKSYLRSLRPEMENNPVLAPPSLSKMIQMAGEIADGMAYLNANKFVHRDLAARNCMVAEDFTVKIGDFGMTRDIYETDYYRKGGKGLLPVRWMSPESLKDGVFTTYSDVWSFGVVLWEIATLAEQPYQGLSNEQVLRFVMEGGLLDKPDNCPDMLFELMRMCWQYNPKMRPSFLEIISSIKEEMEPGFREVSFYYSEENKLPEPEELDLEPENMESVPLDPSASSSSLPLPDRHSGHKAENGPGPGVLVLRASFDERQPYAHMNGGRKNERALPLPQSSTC
Sequence of INSR, construct: aa1110-end, human (P06213 1110-1382, looked up): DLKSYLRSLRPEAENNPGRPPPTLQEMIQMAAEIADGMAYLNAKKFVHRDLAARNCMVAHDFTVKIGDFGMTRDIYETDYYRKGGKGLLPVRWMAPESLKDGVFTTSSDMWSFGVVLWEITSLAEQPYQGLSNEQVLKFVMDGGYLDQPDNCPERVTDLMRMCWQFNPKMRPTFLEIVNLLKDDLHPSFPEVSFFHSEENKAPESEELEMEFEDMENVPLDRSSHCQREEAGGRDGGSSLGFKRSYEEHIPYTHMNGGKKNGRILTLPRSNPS

IGF1R, construct: aa960-end, human (from UniProt P08069)
relative phosphorylation
Conditions	at +1	at +2	at +3	at +4	at +5	at -1	at -2	at -3	at -4	at -5
A fixed	1.7	0.629	0.386	0.818	0.794	1.07	1.11	0.892	1.01	0.847
D fixed	0.473	0.626	0.286	1.12	0.708	3.28	1.46	1.52	1.41	1.33
E fixed	0.838	1.42	0.255	1.68	0.671	1.61	1.71	1.77	1.86	1.05
F fixed	1.68	1.48	2	1.45	2.54	0.717	0.697	1.1	1.05	1.01
G fixed	0.585	0.273	0.367	0.844	0.83	0.547	1.18	0.991	1.03	1.06
H fixed	1.42	0.838	1.57	1.19	1.03	0.864	0.937	1.05	0.915	0.963
I fixed	1.28	1.15	1.94	0.843	0.91	1.2	0.736	0.654	0.819	0.997
K fixed	0.216	0.408	0.307	0.679	0.648	0.21	0.8	0.711	0.863	0.983
L fixed	1.08	1.59	1.35	0.694	1.02	0.964	0.839	0.798	0.886	0.916
M fixed	2.42	1.67	1.43	1.01	0.951	0.744	0.651	0.853	0.875	0.954
N fixed	0.319	0.74	0.288	0.787	0.764	1.83	1.34	1.4	0.971	1.12
P fixed	0.311	0.589	0.291	0.796	1.62	1.11	1.1	0.914	0.98	1.06
Q fixed	0.646	0.733	0.353	1.12	0.674	0.663	1.16	0.922	1.14	1.09
R fixed	0.178	0.588	0.433	0.799	0.914	0.239	0.893	0.899	0.977	1.12
S fixed	0.879	0.659	0.423	0.883	0.841	0.75	1.16	1.01	0.82	0.858
T fixed	0.755	0.661	0.525	0.86	0.704	0.778	0.86	0.973	0.645	0.864
V fixed	1.51	1.13	1.21	0.873	0.695	0.966	0.739	0.652	0.787	0.788
W fixed	1.71	2.83	4.6	1.55	1.68	0.451	0.63	0.901	0.967	0.983
pThr fixed	1.78	0.865	0.247	0.783	0.704	2.1	1.17	1.37	1.18	1.1
pTyr fixed	1.8	2.89	0.461	1.93	0.573	6.45	2.12	1.56	1.65	1.48

INSR, construct: aa1110-end, human (from UniProt P06213)
relative phosphorylation
Conditions	at +1	at +2	at +3	at +4	at +5	at -1	at -2	at -3	at -4	at -5
A fixed	1.55	0.678	0.593	0.95	0.917	1.09	1.09	0.925	1.09	1.07
D fixed	0.383	0.584	0.264	1.04	0.792	2.65	1.14	1.34	1.3	1.14
E fixed	0.627	1.31	0.234	0.976	0.731	1.14	1.26	1.48	1.31	0.983
F fixed	1.41	1.13	1.62	1.02	1.56	0.696	0.621	0.912	1.03	0.834
G fixed	0.731	0.419	0.545	0.809	0.858	0.554	1.24	0.872	1.36	1.23
H fixed	1.67	0.915	1.47	1.16	1.17	1.16	0.95	1.11	0.965	0.975
I fixed	1.21	1.16	1.92	0.902	0.978	1.04	0.87	0.616	0.817	0.935
K fixed	0.275	0.602	0.475	0.951	0.919	0.27	0.8	0.861	0.835	1.11
L fixed	0.986	1.35	1.61	0.841	1.14	0.981	0.957	0.867	0.879	0.913
M fixed	2.41	1.53	1.74	1.16	1.08	0.789	0.743	0.929	0.804	0.976
N fixed	0.312	0.941	0.347	0.762	0.813	2.16	1.25	1.51	0.939	1.22
P fixed	0.317	0.706	0.421	0.704	1.05	1.04	1.29	0.905	1.17	0.956
Q fixed	0.805	0.811	0.46	1.19	0.806	0.747	1.22	1.06	1.22	1.1
R fixed	0.227	0.868	0.706	0.953	1.02	0.266	0.831	0.913	0.913	1.13
S fixed	0.926	0.804	0.534	1.07	1.04	0.901	1.18	1.09	0.814	0.896
T fixed	0.946	0.781	0.673	0.843	0.84	0.97	1.08	0.941	0.731	0.828
V fixed	1.45	1.08	1.13	0.968	0.937	0.989	0.796	0.698	0.746	0.798
W fixed	1.76	2.34	3.26	1.69	1.35	0.558	0.684	0.978	1.08	0.902
pThr fixed	1.28	0.717	0.229	0.55	0.612	1.28	1.01	1.11	1.09	0.769
pTyr fixed	1.36	2.45	0.487	1.48	0.585	4.11	1.68	1.51	1.28	0.991

From the supplement of paper PMC11136658
